From paper PMC7281310, “Pharmacokinetic Analysis of Epithelial/Endothelial Cell Barriers in Microfluidic Bilayer Devices with an Air–Liquid Interface” (Micromachines, 2020)

What was measured:
some cell types = details: 30 min exposure; cited from earlier work
HUVEC endothelial cells = assay: Trypan blue cell viability assay, HUVEC; type: cell-based, human; details: tested concentration range 10^−3–10^1 µM, 1 h exposure
Protocol: (§1) In general, higher compound concentration is desired since the emitted light intensity increases with molecular concentration enhancing the signal-to-noise ratio and, thereby, improving the reliability of the measured concentration. However, some compounds could be toxic agents to cell cultures; as the signal intensity increases with increasing compound concentration, cells could be adversely affected resulting in cell death. […] Epithelial and endothelial cells were seeded and cultured in 96-well plates for 48 h. The cell cultures were exposed to the selected compounds at various concentrations for 1 h and then washed using PBS. Next, the wells were immersed in 0.2% Trypan Blue for 10 min, after which the cells were fixed using 4% paraformaldehyde and rinsed with PBS. Using a brightfield microscope, dead cells were counted using uptake of trypan blue as a marker for nonviable cells.

[1] = design: method as in PMID 21641324, PMID 18646033; details: under conditions similar to the present experiments; cited from earlier work
[2] = Permeability in Transwells without cells; type: in vitro ADME; details: no cells; 12-well Transwell, polyester membrane, 0.4 µm pores, 1.12 cm^2; static, top to bottom chamber; 2 h; endothelial cell media; C0 = 60, 3, 1, 3 µM for 4-dextran, C-dextran, 70-dextran, insulin; fluorescence plate reader; n = 3
Protocol: (§2) Commercially-available 12-well Transwells (Corning, Corning, NY, USA), with polyester membranes, were utilized to assess static compound permeability in the absence of flow-induced shear stress. The area of each Transwell membrane was 1.12 cm^2 with 0.4 µm diameter pores and 0.5% porosity. Epithelial cells were seeded in the Transwell top apical compartment at a density of 2 × 10^6 cells/mL. Once the cell monolayer had reached confluency, the 500 µL culture media in the top compartment was replaced with a solution of endothelial cell media mixed with various fluorescently-labeled compounds at a pre-determined initial concentration. The bottom basolateral compartment was filled with 1500 µL fresh endothelial cell culture media, and the Transwell was placed in an incubator for 2 h. Then, liquid samples of 100 µL from both compartments were aliquoted into a 96-well plate. Fluorescent intensities of the collected samples were measured, using a BioTek Synergy 2 Plate Reader (BioTek, Winooski, VT, USA), and converted to molecular concentrations as reported elsewhere.
(§3) Investigation of molecular transport across Transwell membranes is useful in establishing baseline permeability characteristics with no shear stress. […] The molecular concentration at the Transwell bottom chamber CT was then measured after 2 h. […]

[3] = Permeability of agitated vs un-agitated insulin in Transwells without cells; type: in vitro ADME; details: agitated 5 min in jet nebulizer, 20 min diffusion time, fluorescence
Protocol: The permeability values, calculated based on concentration measurements in the Transwell bottom compartments after 20 min diffusion time, are shown in Figure 10. […] It is; therefore, critical to maintain the stability of compounds during aerosol generation process in order to obtain reliable concentration–time plots using microfluidic bilayer devices with an air–liquid interface.

A549 epithelial cells [4] = assay: Trypan blue cell viability assay, A549; type: cell-based, human; details: insulin at 10 µM, 1 h exposure
Protocol: as §1

[5] = Turbidity / fibril formation after agitation in jet nebulizer (fluorescent intensity, visual pellet); type: physicochemical
Protocol: In order to generate an aerosol, using a jet nebulizer, a high-pressure air stream is forced through a liquid solution to form a mixture of tiny liquid droplets suspended in air. […] Visual inspection of the upper jet nebulizer platform provides an indirect evidence for insulin fibril formation. The photographs of the nebulizer platform, shown in Figure 8, were taken following 5 min of the solution agitation.
The intensity of the agitated and un-agitated dextran is approximately the same (Ia/Iu ≅ 1), indicating constant transparency with and without agitation, which is consistent with the lack of a dextran pellet on the nebulizer platform. […] The initially lower intensity of the agitated insulin with its low transparency, which is correlated with the pellet formation on the nebulizer platform, can be due to insulin fibril formation.

A549 epithelial cells [6] = assay: Permeability in Transwells with A549 cell monolayer; type: in vitro ADME, human; details: confluent A549 monolayer in apical chamber; 12-well Transwell, polyester membrane, 0.4 µm pores, 1.12 cm^2; static, top to bottom chamber; 2 h; endothelial cell media; C0 = 60, 3, 1, 3 µM for 4-dextran, C-dextran, 70-dextran, insulin; fluorescence plate reader; n = 3
Protocol: as §2, with “elsewhere. […]” for “elsewhere.”
as §3

In the case of “Insulin: Fluorescently tagged (FITC) insulin, 5.8 kDa, used at 3 µM as potential inhaled therapeutic compound”, the “Concentration at which some cell types start to exhibit signs of cell death” value (some cell types) is given as “greater than 1 µM”, the “Cytotoxicity to HUVEC cells (in words)” value (HUVEC endothelial cells) is given as “did not have adverse effect” and the “Time of fibril dissociation” value [1] is given as < 1 h. The “Permeability in Transwells, Pat” value [2] was 15.8 ×10⁻⁶ cm/s, the “Permeability of agitated solution compared with un-agitated solution” value [3] was “clearly lower” and the “A549 epithelial cell viability” value (A549 epithelial cells [4]) was 88%. For the same substance, the “Time to reach steady-state Ia/Iu” value ([5]; after 5 min agitation in a jet nebulizer) was ≤ 20 min, the “Pellet (solution turbidity) on nebulizer platform, visual inspection” value ([5]; following 5 min of solution agitation) was “visible” and the “Time for pellet to disappear” value ([5]; following 5 min of solution agitation, visual inspection) was “within half an hour”. The “Permeability in Transwells, Pat” value (A549 epithelial cells [6]) was 5 ×10⁻⁶ cm/s.
